1 molecule from patent publication US20220332804A1 (CSL INNOVATION, published 2022) can be followed below.

Test in all cases: SPR, mAb captured, C2 mutant analyte;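 also: Anti-C2 mAbs captured on goat anti-human IgG Biacore CM5 chips, alanine or serine C2 surface mutants flowed over at 37 °C, double-referenced sensorgrams fitted to a 1:1 binding model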
One assay has as its target T1, human C2 N380A (human, UniProt P06681 21-752).
T1 sequence: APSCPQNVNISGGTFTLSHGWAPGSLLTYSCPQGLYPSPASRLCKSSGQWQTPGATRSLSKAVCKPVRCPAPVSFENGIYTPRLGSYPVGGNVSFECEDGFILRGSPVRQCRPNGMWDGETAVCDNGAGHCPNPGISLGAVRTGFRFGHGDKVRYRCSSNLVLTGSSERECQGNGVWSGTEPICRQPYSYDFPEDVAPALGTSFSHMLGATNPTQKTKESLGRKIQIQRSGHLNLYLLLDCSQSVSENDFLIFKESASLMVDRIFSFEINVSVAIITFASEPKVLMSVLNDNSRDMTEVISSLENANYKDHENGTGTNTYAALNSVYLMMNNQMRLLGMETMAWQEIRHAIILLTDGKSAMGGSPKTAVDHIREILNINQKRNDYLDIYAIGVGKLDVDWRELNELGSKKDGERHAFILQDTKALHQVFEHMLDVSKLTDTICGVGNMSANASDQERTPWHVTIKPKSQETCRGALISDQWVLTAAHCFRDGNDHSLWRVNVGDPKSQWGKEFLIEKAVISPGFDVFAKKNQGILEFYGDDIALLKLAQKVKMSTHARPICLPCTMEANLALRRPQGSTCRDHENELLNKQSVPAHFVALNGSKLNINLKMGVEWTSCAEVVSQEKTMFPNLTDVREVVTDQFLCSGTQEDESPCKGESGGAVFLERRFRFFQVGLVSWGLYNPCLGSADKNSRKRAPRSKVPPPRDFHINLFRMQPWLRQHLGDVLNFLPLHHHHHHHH

Another assay deals with T2, human C2 M452A (human, UniProt P06681 21-752).
T2 sequence: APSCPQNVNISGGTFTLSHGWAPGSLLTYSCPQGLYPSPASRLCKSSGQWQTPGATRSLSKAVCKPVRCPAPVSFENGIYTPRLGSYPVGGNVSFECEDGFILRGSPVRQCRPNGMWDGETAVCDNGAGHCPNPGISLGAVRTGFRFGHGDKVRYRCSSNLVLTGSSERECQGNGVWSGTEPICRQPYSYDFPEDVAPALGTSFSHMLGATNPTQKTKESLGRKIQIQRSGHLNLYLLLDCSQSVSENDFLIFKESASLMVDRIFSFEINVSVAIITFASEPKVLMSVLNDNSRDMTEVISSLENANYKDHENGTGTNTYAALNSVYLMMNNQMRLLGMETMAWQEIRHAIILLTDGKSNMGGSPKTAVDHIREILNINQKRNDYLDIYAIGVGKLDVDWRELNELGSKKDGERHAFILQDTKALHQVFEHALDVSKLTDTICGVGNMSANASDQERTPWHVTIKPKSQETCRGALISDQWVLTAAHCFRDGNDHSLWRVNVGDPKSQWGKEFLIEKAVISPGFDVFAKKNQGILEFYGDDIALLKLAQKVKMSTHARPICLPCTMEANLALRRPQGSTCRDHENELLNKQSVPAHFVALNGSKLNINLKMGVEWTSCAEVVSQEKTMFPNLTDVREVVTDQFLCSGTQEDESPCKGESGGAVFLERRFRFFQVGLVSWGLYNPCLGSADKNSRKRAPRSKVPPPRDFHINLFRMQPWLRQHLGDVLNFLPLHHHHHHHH

The target in the next assay is T3, human C2 R519A (human, UniProt P06681 21-752).
T3 sequence: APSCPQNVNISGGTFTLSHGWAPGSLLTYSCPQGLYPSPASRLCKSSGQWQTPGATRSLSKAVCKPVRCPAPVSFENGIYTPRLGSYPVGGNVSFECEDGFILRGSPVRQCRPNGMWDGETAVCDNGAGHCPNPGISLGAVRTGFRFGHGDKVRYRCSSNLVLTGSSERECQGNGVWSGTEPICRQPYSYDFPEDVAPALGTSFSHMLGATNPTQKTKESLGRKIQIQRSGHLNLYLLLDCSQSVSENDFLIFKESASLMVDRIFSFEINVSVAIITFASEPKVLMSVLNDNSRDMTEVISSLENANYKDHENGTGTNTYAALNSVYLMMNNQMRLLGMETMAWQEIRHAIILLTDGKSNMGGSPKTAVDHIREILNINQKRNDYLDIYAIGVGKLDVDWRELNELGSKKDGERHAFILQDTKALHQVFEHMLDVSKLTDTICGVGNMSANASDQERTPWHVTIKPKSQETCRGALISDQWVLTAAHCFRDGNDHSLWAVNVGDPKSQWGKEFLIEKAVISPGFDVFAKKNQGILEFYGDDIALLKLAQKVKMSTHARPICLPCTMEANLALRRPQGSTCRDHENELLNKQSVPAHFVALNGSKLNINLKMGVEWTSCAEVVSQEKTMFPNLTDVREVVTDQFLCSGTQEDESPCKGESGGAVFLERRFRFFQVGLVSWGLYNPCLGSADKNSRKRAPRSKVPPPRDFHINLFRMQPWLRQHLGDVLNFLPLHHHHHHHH

The target in another assay is T4, human C2 K274A (human, UniProt P06681 21-752).
T4 sequence: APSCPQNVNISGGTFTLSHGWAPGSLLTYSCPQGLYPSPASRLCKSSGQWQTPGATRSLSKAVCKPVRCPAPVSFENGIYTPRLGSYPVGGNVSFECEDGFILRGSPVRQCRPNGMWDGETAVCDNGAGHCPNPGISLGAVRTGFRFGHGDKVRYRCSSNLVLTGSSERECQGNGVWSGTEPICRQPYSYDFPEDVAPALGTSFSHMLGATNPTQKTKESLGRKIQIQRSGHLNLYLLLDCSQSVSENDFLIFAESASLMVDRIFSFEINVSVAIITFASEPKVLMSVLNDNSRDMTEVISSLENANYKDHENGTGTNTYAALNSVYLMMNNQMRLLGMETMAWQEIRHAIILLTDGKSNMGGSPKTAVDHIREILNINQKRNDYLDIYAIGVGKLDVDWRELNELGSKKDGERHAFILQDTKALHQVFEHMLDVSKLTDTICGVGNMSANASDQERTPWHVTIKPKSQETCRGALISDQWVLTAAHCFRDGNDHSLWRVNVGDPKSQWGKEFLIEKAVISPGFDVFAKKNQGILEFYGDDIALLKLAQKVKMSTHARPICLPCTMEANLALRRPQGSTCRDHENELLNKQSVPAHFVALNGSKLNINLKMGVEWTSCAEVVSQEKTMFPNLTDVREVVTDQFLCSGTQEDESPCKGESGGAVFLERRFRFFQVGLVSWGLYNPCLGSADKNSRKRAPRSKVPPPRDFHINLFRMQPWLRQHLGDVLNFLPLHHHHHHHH

B1: RF16-214 (antibody, V domains shown)
VH: EVQLLESGGGLVQPGGSLRLSCAASGFTFSWYQMMWVRQAPGKGLEWVSRIYPSGGGTAYADSVKGRFTISRDNSKNTLYLQMNSLRAEDTAVYYCARDAGYGDNWGQGTLVTVSS
VL: QSALTQPPSVSVSPGQTASITCSGDKLGEKYASWYQQKAGQSPVMVIYQDRKRPSGIPERFSGSNSGNTATLTISGTQAMDEADYYCQAWDTRAVVFGGGTKLTVLG
The Kd is the free concentration of one partner at which half of the binding sites on the other are occupied at equilibrium, for simple one-to-one binding. A lower Kd goes with higher affinity. On to B1, for which the Kd with human C2 N380A came out at 58.8 nM; in the assay with human C2 M452A it was 21.3 nM; with human C2 R519A it was 40 nM. For the same molecule, in the assay with human C2 K274A, the binding result is “no binding”.
